From patent US8691960B2, “Oxidoreductases for enantioselective reactions” (Duke University, priority 2012, dated 2014)
Changes are numbered by the printed parent chain. Numbers in names are those of the source. Entries after “also recorded” stand apart in the source; their conditions may differ.

What was measured:
Assay type in all cases: biochemical
[1] = 2-hydroxyadipate dehydrogenase activity of crude bacterial lysates expressing ScHIDH mutants; details: for reaction rate relative to ScHIDH-R143H: crude lysates, 15 mM 2-oxoadipate; for 2-hydroxyadipate dehydrogenase activity in crude bacterial lysates: 100 μM NADH substrate
Protocol: To obtain crude lysates, 0.5 mL of starter cultures generated as described above were added to 4.5 mL LB-Amp, shaken for 2 h, and shaken for an additional 2 h after induction with 1 mM IPTG. Pellets from these cultures were harvested by centrifugation at 4500×g at 4° C. These pellets were resuspended into 500 μL of Buffer A (0.2% Triton-X 100, 1 mM PMSF, 0.5 mM EDTA, 10 mM Tris, pH 7.5) on ice and sonicated for 6-cycles of 15 seconds each on ice on a Sonifer 250 (Branson). This was then spun down at 13,000×g at 4° C. for 15 min and the cleared lysates were normalized with additional lysis buffer to 700 ng/4 and stored at −80° C. as aliquots. Protein concentrations were determined using the BioRad Protein Assay reagent according to the manufacturer's instructions.
(§1) NADH, 2-oxoadipate, 2-oxoglutarate, 2-heptandioate, and MgCl2 were from Sigma. Standard reaction mixes contained 15 mM 2-oxoadipate, 100 μM NADH, and a reaction buffer with final concentrations of 20 mM MgCl2 and 500 mM HEPES, pH 7.3. NADH oxidation was monitored by the decrease in fluorescence with excitation of 340 nm and emission of 450 nm on a PolarSTAR Optima plate reader (BMG Labtech). Fluorescence monitored reactions were carried out in 10-μL volumes in a 384-well black microplate (Greiner 788076) covered with clear optical film. The levels of fluorescence were converted to NADH concentrations based on standards of NADH in reaction buffer containing BSA. Reactions with high amounts of NADH were monitored by the UV absorbance of NADH at 340 nm in 40-μL reaction volumes in clear 96-well plates.
(§2) Reaction rates are NADH oxidation per unit time per unit of purified enzyme or crude lysate and 1 Unit (U) is 1 μmolNADH min^−1 mgenzyme^−1. Rates are initial rates calculated by least squares linear regression on the first 10 minutes of the reaction. For KM determination, concentrations of substrate/cofactors at least 5×-higher than the KM were used, while the species of interest was varied in concentration; substrate/cofactor concentrations: 500 μM NADH; 15 mM 2-oxoadipate; 20 mM MgCl2. Reported α-hydroxyadipate (2-hydroxy adpic acid) Vmax values were obtained from 2-oxoadipate KM determination experiments. Michaelis-Menten KM and Vmax parameters were estimated by fitting data to a curve using nonlinear regression in GraphPad Prism 5.0 (GraphPad Software, La Jolla, Calif.).

[2] = Kinetic characterization of ScHIDH mutants: KM NADH; details: Table 3; 15 mM 2-oxoadipate, 20 mM MgCl2, pH 7.3, 25° C.
Protocol: as §2
(§3) Assays were performed with 40 ng/μL enzyme, 15 mM 2-oxoadipate, 100 μM NADH, 20 mM MgCl2 and 100 mM HEPES, pH 7.3 in 10 or 20 μL volumes in 384-well black microplates. NADH concentration was monitored by the decrease in fluorescence (excitation wavelength: 340 nm; emission wavelength: 450 nm) on a fluorescent plate reader. The fluorescence intensities were converted to NADH concentrations based on NADH standards. Reactions with high amounts of NADH (>300 μM) were monitored by the UV absorbance of NADH at 340 nm in a 40 μL reaction volume in a clear 96-well plate on the same plate reader. Reactions with ScHIDH were carried out at 25° C. and reactions with TtHIDH were carried out at 45° C. Reported rates are initial rates from the first 10 minutes of reaction. For KM determination, concentrations of substrate at least 5×-higher than the KM were used (for NADH, 500 μM; for 2-oxoadipate, 15 mM) while the substrate of interest was varied in concentration. KM and Vmax were estimated by fitting data to equation (1) using nonlinear regression, where x is substrate concentration and y is the rate. y=Vmax·x/KM+x (1) Rate data for ScHIDH-R143C, -R143H, and -R143K are summarized in Table 3.

[3] = Kinetic characterization of ScHIDH mutants: KM 2-oxoadipate and Vmax; details: for Km / Vmax: Table 3; for Km: 40 ng/μL enzyme, 500 μM NADH, 20 mM MgCl2, pH 7.3, 25° C.; for Vmax: from 2-oxoadipate KM experiments
Protocol: as §2, §3

[4] = Enantiospecific LC-MS/MS quantification of (R)- and (S)-2-hydroxyadipate product; details: for Enantiomeric Excess: Table 3, (R)-2-hydroxyadipate product
Protocol: Quantitative, enantiospecific LC-MS/MS was performed based on the procedure described for 2-hydroxyglutarate. Jin et al., PLoS one 6, e16812: 1-8 (2011); Struys, et al., Clin. Chem. 50: 1391-1395 (2004). To 20 μL of reaction mix, 2 μL of 130 μg/mL of a racemic mixture of [3,3,4,4-^2H4]-2-hydroxyglutarate (internal standard) in water was added and the mixture dried by vacuum centrifuge (50° C., 15 min). The dry residue was treated with 50 mg/mL freshly prepared diacetyl-L-tartaric anhydride (Sigma) in dichloromethane/glacial acetic acid (4:1 by volume) and heated (75° C., 30 min). After drying (50° C., 15 min) the residue was dissolved in 100 μL of LC mobile phase A (see below) for analysis. An Agilent 1200 series HPLC (Santa Clara, Calif.) was used for liquid chromatography (LC) and a Sciex/Applied Biosystems API 3200 QTrap (Carlsbad, Calif.) was used for triple quadrupole mass spectrometry (MS/MS). Mobile phase A: water, 3% acetonitrile, 280 μL ammonium hydroxide (^˜25%), pH adjusted to 3.6 with formic acid (^˜98%). Mobile phase B: methanol. Analytical column: Kinetex C-18, 150×4.6 mm, 2.6 μm, and SafeGuard C-18 4×3 mm guard-column from Phenomenex (Torrance, Calif.). Column temperature: 45° C. Elution gradient at 1 mL/min flow rate: 0-1 min 0% B, 1-2 min 0-100% B, 2-3.5 min 100% B, 3.5-4 min 100-0% B, 4-10 min 0% B. Injection volume: 10 μL. Q1/Q3 (m/z) transitions were monitored: 377/161, 2-hydroxyadipate (2HA) and 367/151, [3,3,4,4-^2H4]-2-hydroxyglutarate (2HG-d4). To calibrate, 0, 0.16, 0.54, 1.8, 6, and 20 μg/mL 2-hydroxyadipate (Sigma), synthesized as described above, was analyzed in reaction buffer. (R)- and (S)-enantiomers were discriminated based on time of elution from the HPLC column, using the relative elution time for (R)-2-hydroxyglutarate compared to the racemic mixture of 2-hydroxyglutarate described previously to identify the (R)-2-hydroxyadipate enantiomer. Jin et al., PLoS one 6, e16812: 1-8 (2011). Standards were analyzed alongside experimental samples. Accuracy acceptance criteria were 85% for all but the lowest level (0.16 μg/mL, 80%).

[5] = NADH oxidation rate of purified HIDH enzymes with 2-oxoadipate (fluorescence / UV 340 nm); details: 100 μM NADH
Protocol: as §1, §2, §3

[6] = NADH oxidation with 2-oxoadipate plus CO2 added as NaHCO3 (reductive carboxylation)
Protocol: as §1, §2

B1: ScHIDH-R143K: Saccharomyces cerevisiae homoisocitrate dehydrogenase R143K mutant (protein)
chain: MFRSVATRLSACRGLASNAARKSLTIGLIPGDGIGKEVIPAGKQVLENLNSKHGLSFNFIDLYAGFQTFQETGKALPDETVKVLKEQCQGALFGAVQSPTTKVEGYSSPIVALRREMGLFANVRPVKSVEGEKGKPIDMVIVKENTEDLYIKIEKTYIDKATGTRVADATKRISEIATRRIATIALDIALKRLQTRGQATLTVTHKSNVLSQSDGLFREICKEVYESNKDKYGQIKYNEQIVDSMVYRLFREPQCFDVIVAPNLYGDILSDGAAALVGSLGVVPSANVGPEIVIGEPCHGSAPDIAGKGIANPIATIRSTALMLEFLGHNEAAQDIYKAVDANLREGSIKTPDLGGKASTQQVVDDVLSRL
modifications: ScHIDH R143K polypeptide
notes: Saccharomyces cerevisiae homoisocitrate dehydrogenase R143K mutant
For B1, the “reaction rate relative to ScHIDH-R143H” value ([1]; 800 μM NADH) was 83.0±0.03%, the “reaction rate relative to ScHIDH-R143H” value ([1]; standard conditions of 100 μM NADH) was 3.6±0.3% and the Km [2] was 1.1 mM. The Km [3] was 9.4 mM, the Vmax [3] was 0.011 µmol/min/mg and the Enantiomeric Excess [4] was over 92%.

B2: ScHIDH-Y150D: Saccharomyces cerevisiae homoisocitrate dehydrogenase Y150D mutant (protein)
chain: B1 chain with K143R, Y150D
modifications: ScHIDH Y150D polypeptide
notes: Saccharomyces cerevisiae homoisocitrate dehydrogenase Y150D mutant
With B2 the “2-hydroxyadipate dehydrogenase activity in crude bacterial lysates” value (from here on “2-hydroxyadipate dehydrogenase activity”) [1] was “did not demonstrate 2-hydroxyadipate dehydrogenase activity”.

B3: ScHIDH-R143C: Saccharomyces cerevisiae homoisocitrate dehydrogenase R143C mutant (protein)
chain: B1 chain with K143C
modifications: ScHIDH R143C polypeptide
notes: Saccharomyces cerevisiae homoisocitrate dehydrogenase R143C mutant
For B3, the “2-hydroxyadipate dehydrogenase activity” value [1] was “did not demonstrate 2-hydroxyadipate dehydrogenase activity”, the Km [2] was 0.32 mM and the Km [3] was 11 mM. The Vmax [3] was 0.065 µmol/min/mg, the “maximal turnover compared with other ScHIDH mutants” value ([3]; in vitro data) was “highest maximal turnover of any ScHIDH mutant assayed” and the Enantiomeric Excess [4] was over 99.2%.

B4: ScHIDH-R115Q: Saccharomyces cerevisiae homoisocitrate dehydrogenase R115Q mutant (protein)
chain: B1 chain with R115Q, K143R
modifications: ScHIDH R115Q polypeptide
notes: Saccharomyces cerevisiae homoisocitrate dehydrogenase R115Q mutant
For B4, the “2-hydroxyadipate dehydrogenase activity” value [1] was “did not demonstrate 2-hydroxyadipate dehydrogenase activity”, the “NADH oxidation by purified enzyme in the presence of 2-oxoadipate” value ([5]; standard reaction conditions, 10 mM 2-oxoadipate, 20 mM MgCl2) was “behaved essentially the same as wild type; also recorded: did not oxidize NADH” and the “NADH oxidation when CO2 was provided as NaHCO3” value ([6]; purified enzyme, 15 mM 2-oxoadipate, 100 μM NADH, 0-42 mM NaHCO3) was “did oxidize NADH”.

B5: ScHIDH-R114Q: Saccharomyces cerevisiae homoisocitrate dehydrogenase R114Q mutant (protein)
chain: B1 chain with R114Q, K143R
modifications: ScHIDH R114Q polypeptide
notes: Saccharomyces cerevisiae homoisocitrate dehydrogenase R114Q mutant
In the case of B5, the “2-hydroxyadipate dehydrogenase activity” value [1] is reported as “did not demonstrate 2-hydroxyadipate dehydrogenase activity”.

B6: ScHIDH-V111D: Saccharomyces cerevisiae homoisocitrate dehydrogenase V111D mutant (protein)
chain: B1 chain with V111D, K143R
modifications: ScHIDH V111D polypeptide
notes: Saccharomyces cerevisiae homoisocitrate dehydrogenase V111D mutant
For B6, the “2-hydroxyadipate dehydrogenase activity” value [1] was “did not demonstrate 2-hydroxyadipate dehydrogenase activity”.

B7: TtHIDH-R118H: Thermus thermophilus homoisocitrate dehydrogenase R118H mutant (protein)
chain: MAYRICLIEGDGIGHEVIPAARRVLEATGLPLEFVEAEAGWETFERRGTSVPEETVEKILSCHATLFGAATSPTRKVPGFFGAIRYLRRRLDLYANVRPAKSRPVPGSRPGVDLVIVHENTEGLYVEQERRYLDVAIADAVISKKASERIGRAALRIAEGRPRKTLHIAHKANVLPLTQGLFLDTVKEVAKDFPLVNVQDIIVDNCAMQLVMRPERFDVIVTTNLLGDILSDLAAGLVGGLGLAPSGNIGDTTAVFEPVHGSAPDIAGKGIANPTAAILSAAMMLDYLGEKEAAKRVEKAVDLVLERGPRTPDLGGDATTEAFTEAVVEALKSL
modifications: TtHIDH R118H polypeptide
notes: Thermus thermophilus homoisocitrate dehydrogenase R118H mutant
With B7 the “decrease of NADH concentration after 2 h” value ([5]; TtHIDH, 15 mM 2-oxoadipate, 45° C., 2 h) was 61.3 µM, the “initial rate of NADH oxidation” value ([5]; TtHIDH, 15 mM 2-oxoadipate, 45° C., U = μmol NADH min^−1 mg^−1) was 0.058±0.0031 U and the “rate of NADH consumption with NaHCO3 added” value ([6]; TtHIDH, 2-oxoadipate and NADH, CO2 added as NaHCO3) was 0.059 U. The “increase of (R)-2-hydroxyadipate concentration after 2 h” value ([4]; TtHIDH, 100 μM NADH, 15 mM 2-oxoadipate, 45° C., 2 h) was 61.3 µM and the “increase of (S)-2-hydroxyadipate” value ([4]; TtHIDH, same reaction, 2 h) was “No increase”.
